Measured values taken from patent publication US20060281130A1 (ENKAM PHARMACEUTICALS A S, published 2006).
Values belong to the binder of their own block, whether it stands above or below them. No end group written: not given here.

Assays:
[1] = biological target: FGFR on embryonic rat hippocampal neurons (rat); assay: cell-based or functional assay
[2] = biological target: T1, combined FGFR1 Ig modules 2, 3 (mouse, UniProt P16092 141-365); assay: SPR (BIAcoreX), FGFR Ig modules 2, 3 immobilized on CM5
T1 construct: Expressed in Drosophila S2 cells; immobilized on CM5 chip by amine coupling in the SPR experiments; also called FGFR Ig modules 2, 3; FGFR modules 2, 3
T1 sequence: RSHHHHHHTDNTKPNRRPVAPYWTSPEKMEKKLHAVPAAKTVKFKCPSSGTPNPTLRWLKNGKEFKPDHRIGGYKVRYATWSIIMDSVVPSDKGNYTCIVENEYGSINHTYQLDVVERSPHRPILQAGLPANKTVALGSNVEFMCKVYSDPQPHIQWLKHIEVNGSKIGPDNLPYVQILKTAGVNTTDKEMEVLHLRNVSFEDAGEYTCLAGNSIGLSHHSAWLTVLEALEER

[3] = biological target: T1, combined FGFR1 Ig modules 2, 3; assay: SPR, FGFR Ig modules 2, 3 immobilized
[4] = biological target: T1, combined FGFR1 Ig modules 2, 3; assay: SPR, apparent Kd, FGFR Ig modules 2, 3 immobilized

neurite outgrowth from hippocampal neurons, stimulatory effect relative to the entire FG loop peptide [1]: ~50%
Binder: AENQQGK [truncated FG loop peptide, heptamer Ala77-K83]

Kd [2]: 9.97 µM
koff [2]: 0.00556 s⁻¹
kon [2]: 889 M⁻¹ s⁻¹
B1: combined NCAM F3 modules 1, 2 (other, rat)
chain: AGHHHHHHQADTPSSPSIDRVEPYSSTAQVQFDEPEATGGVPILKYKAEWKSLGEEAWHSKWYDAKEANMEGIVTIMGLKPETRYAVRLAALNGKGLGEISAATEFKTQPVREPSAPKLEGQMGEDGNSIKVNLIKQDDGGSPIRHYLVKYRALASEWKPEIRLPSGSDHVMLKSLDWNAEYEVYVVAENQQGKSKAAHFVFRTSAQ
notes: range 507-705; Recombinant, expressed in P. pastoris KM71; also called double module protein

koff [3]: 0.00397 s⁻¹
kon [3]: 2070 M⁻¹ s⁻¹
Kd [4]: 2.58 µM
B2: dendrimeric FG loop peptide (SEQ ID NO: 1) (peptide)
peptide: EVYVVAENQQGKSKA
modifications: also: tetrameric dendrimer: four peptides joined through their C-termini to a three-lysine backbone
notes: Tetrameric dendrimer on a three-lysine backbone; also called dendrimeric version of the FG loop peptide

neurite outgrowth from hippocampal neurons, stimulatory effect relative to the entire FG loop peptide [1]: ~50%
Binder: VAENQQGKS [truncated FG loop peptide, nonamer V78-S84 (as printed)]

neurite outgrowth from hippocampal neurons, stimulatory effect relative to the non-mutated peptide [1]: ~60%
Binder: EVAVVAENQQGASAA [FG loop peptide in which Y74, K83 and K85 were substituted with alanine]
